Measured values reported in paper PMC9675734, “Phosphorylation disrupts long-distance electron transport in cytochrome c” (Nature Communications, 2022).

Molecular target: T1, soluble domain of Arabidopsis thaliana cytochrome c1 (Arabidopsis thaliana, UniProt Q9FKS5 64-265)
T1 construct: Hemeprotein; Immobilised on Au(111) through Cys10 (AFM, EC-STM) or by amine coupling on the biochip (SPR); also called Cc1; plant cytochrome Cc1; source: E. coli BL21 (DE3), pET-Cc1 with pEC86 (ccmABCDEFGH), purified (Nuvia Q anion exchange, ENrich SEC 70)
T1 sequence (looked up): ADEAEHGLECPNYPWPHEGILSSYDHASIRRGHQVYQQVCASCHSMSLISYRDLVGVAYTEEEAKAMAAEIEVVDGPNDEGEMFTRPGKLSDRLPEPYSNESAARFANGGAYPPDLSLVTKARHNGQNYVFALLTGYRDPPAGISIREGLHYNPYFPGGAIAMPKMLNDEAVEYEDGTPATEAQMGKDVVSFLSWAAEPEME
Experiment: SPR; SPRi; Cc1 immobilised by direct amine coupling on a CS SPRi-Biochip (10 and 15 uM drops); WT or Y48pCMF Cc flowed at 2.5 to 10 uM, 50 uL/min; 298 K; 10 mM sodium phosphate buffer pH 6.5; reference spots with rabbit serum albumin subtracted; 1:1 binding model
Details: both partners purified

B1: Homo sapiens WT cytochrome c (natural protein)
chain: not shown
notes: cytochrome c, human, CYCS gene in plasmid pBTR1-WT; Hemeprotein (heme c attached by the co-expressed heme lyase); Used as analyte in SPR; also called Cc; WT Cc; source: E. coli BL21 (DE3), pBTR1-WT with yeast Cc heme lyase (CYC3), purified (Nuvia S cation exchange)
Kd: 527 nM | koff: 0.00318 s⁻¹ | kon: 6540 M⁻¹ s⁻¹
